Columns and labels:
[1] = test system: Fer (mouse); assay: phosphorylation enrichment, bacterial display (enrichment ratio); higher = better substrate or ligand; peptides without Tyr show the background
[2] = target: Fyn (UniProt P06241); assay: as above
[3] = target: EPHB1 (UniProt P54762); assay: as above
[4] = target: Hck (UniProt P08631); assay: as above
[5] = target: Fes (UniProt P07332); assay: as above
[6] = target: FGFR1 (UniProt P11362); assay: as above
[7] = target: EPHB2 (UniProt P29323); assay: as above
[8] = target: Jak2 (UniProt O60674); assay: as above
[9] = test system: c-Abl (mouse); assay: as above
[10] = test system: AncSZ; assay: as above
[11] = target: MERTK (UniProt Q12866); assay: as above
[12] = test system: c-Src; assay: as above
[13] = target: FGFR3 (UniProt P22607); assay: as above
[14] = target: Grb2 SH2 (UniProt P62993); assay: SH2 binding enrichment of the phosphorylated peptide, bacterial display (enrichment ratio); higher = better substrate or ligand; peptides without Tyr show the background
[15] = target: c-Src SH2; assay: as above
[16] = target: SHP2-C SH2; assay: as above
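Throughout, for SH2 binding enrichment of the phosphorylated peptide, bacterial display: peptide library displayed on the E. coli surface as eCPX fusions, selected cells deep-sequenced, score is each peptide's frequency after selection divided by its frequency in the input.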
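Throughout, for phosphorylation enrichment, bacterial display: 11-residue human phosphosite peptides and single-mutation variants displayed on the E. coli surface, counted by deep sequencing, each peptide's frequency after selection divided by its frequency in the unselected input library; frequency after pTyr selection over input frequency; kinase dosed for 20-30% of maximal phosphorylation in three min.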

Chain of Fyn (P06241 whole entry, looked up): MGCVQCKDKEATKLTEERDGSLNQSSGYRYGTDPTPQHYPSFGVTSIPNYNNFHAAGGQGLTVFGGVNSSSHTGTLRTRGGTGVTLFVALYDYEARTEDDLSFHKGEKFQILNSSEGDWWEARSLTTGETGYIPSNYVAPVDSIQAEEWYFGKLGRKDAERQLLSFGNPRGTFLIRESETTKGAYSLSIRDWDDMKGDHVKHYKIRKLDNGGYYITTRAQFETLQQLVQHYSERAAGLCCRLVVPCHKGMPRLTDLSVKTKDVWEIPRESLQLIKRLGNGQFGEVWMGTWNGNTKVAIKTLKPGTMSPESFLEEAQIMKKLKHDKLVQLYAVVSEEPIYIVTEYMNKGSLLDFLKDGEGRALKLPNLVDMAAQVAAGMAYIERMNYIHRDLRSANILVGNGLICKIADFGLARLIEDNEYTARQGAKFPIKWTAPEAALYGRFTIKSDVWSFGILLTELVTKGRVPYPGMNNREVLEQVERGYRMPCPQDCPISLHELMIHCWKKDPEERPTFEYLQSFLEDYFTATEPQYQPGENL
Chain of Jak2 (O60674 whole entry, looked up): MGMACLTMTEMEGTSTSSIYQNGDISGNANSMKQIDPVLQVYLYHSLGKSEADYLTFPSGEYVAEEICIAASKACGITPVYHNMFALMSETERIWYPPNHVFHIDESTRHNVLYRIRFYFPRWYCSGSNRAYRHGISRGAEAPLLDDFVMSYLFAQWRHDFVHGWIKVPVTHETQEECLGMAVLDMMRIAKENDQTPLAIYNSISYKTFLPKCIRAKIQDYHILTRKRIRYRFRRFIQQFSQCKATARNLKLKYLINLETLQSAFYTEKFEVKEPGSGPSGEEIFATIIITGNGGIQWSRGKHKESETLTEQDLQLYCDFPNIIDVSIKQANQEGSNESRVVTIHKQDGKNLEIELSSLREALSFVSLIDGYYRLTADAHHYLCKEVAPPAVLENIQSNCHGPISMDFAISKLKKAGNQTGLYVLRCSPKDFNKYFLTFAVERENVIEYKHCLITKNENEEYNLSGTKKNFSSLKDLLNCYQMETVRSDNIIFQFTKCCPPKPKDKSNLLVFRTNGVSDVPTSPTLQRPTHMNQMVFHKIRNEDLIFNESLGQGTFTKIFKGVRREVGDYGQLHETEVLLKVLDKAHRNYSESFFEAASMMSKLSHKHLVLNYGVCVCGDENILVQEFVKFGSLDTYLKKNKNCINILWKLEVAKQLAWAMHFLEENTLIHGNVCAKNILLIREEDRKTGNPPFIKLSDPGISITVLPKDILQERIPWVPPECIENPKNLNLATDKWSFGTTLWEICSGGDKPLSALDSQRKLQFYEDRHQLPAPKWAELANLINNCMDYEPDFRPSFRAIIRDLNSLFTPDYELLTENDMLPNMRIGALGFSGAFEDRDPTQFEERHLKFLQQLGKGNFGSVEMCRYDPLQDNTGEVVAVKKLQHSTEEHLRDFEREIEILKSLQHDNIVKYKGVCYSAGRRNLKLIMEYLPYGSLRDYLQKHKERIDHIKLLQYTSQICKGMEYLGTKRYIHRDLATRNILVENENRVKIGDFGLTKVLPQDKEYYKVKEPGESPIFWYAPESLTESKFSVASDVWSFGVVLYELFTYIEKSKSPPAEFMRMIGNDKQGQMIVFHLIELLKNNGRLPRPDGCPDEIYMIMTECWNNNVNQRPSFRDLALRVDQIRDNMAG
Chain of EPHB1 (P54762 whole entry, looked up): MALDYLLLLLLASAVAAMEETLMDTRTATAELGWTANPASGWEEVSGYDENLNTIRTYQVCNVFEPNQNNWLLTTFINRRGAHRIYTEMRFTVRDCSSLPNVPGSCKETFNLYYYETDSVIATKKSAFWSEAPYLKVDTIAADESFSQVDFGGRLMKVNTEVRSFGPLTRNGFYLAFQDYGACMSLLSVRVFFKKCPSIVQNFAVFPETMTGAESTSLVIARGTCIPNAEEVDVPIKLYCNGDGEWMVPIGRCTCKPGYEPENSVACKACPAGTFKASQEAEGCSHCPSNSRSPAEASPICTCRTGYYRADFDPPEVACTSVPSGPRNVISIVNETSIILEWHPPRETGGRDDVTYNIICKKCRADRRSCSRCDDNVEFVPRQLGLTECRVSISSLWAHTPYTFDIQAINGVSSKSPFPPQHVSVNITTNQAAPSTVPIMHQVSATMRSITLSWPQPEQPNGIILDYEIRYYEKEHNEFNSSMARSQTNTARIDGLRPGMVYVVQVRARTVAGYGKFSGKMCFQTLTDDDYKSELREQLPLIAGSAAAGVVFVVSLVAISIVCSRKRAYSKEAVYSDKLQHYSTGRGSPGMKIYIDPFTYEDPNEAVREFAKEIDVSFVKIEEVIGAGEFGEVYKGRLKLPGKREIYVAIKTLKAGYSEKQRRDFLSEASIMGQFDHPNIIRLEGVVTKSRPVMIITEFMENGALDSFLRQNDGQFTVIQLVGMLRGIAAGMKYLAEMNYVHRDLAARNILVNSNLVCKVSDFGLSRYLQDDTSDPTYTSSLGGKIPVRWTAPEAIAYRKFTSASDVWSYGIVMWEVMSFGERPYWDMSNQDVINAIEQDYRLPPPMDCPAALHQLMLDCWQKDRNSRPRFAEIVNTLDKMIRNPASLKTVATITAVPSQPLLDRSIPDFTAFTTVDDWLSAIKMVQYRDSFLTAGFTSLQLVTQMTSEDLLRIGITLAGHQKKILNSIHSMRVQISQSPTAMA
Chain of EPHB2 (P29323 whole entry, looked up): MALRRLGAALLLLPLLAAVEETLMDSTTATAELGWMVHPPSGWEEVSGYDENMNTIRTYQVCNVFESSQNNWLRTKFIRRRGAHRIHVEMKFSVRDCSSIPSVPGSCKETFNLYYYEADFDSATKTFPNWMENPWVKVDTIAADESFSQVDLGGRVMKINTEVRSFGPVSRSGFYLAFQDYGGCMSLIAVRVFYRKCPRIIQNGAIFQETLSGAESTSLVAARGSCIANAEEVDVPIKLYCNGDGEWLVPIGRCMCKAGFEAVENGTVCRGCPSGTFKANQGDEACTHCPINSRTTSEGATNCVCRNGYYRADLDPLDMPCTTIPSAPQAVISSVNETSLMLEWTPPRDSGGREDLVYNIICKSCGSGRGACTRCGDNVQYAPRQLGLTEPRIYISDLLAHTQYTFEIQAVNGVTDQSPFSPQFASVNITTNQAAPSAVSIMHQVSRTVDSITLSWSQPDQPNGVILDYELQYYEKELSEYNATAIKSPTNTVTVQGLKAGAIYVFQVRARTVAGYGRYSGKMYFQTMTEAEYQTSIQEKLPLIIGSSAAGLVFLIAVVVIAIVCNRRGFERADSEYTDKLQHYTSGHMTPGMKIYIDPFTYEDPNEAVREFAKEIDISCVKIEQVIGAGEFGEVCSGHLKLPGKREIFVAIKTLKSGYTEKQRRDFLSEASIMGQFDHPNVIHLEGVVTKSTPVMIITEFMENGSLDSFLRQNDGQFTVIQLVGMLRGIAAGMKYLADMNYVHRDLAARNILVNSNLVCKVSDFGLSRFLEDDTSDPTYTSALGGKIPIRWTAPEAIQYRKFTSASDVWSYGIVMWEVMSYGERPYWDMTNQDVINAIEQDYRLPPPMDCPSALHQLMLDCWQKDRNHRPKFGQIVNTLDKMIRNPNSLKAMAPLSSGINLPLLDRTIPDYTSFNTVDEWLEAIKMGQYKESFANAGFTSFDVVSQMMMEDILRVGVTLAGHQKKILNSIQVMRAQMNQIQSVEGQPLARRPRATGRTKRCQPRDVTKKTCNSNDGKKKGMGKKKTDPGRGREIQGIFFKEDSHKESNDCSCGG
Chain of FGFR3 (P22607 whole entry, looked up): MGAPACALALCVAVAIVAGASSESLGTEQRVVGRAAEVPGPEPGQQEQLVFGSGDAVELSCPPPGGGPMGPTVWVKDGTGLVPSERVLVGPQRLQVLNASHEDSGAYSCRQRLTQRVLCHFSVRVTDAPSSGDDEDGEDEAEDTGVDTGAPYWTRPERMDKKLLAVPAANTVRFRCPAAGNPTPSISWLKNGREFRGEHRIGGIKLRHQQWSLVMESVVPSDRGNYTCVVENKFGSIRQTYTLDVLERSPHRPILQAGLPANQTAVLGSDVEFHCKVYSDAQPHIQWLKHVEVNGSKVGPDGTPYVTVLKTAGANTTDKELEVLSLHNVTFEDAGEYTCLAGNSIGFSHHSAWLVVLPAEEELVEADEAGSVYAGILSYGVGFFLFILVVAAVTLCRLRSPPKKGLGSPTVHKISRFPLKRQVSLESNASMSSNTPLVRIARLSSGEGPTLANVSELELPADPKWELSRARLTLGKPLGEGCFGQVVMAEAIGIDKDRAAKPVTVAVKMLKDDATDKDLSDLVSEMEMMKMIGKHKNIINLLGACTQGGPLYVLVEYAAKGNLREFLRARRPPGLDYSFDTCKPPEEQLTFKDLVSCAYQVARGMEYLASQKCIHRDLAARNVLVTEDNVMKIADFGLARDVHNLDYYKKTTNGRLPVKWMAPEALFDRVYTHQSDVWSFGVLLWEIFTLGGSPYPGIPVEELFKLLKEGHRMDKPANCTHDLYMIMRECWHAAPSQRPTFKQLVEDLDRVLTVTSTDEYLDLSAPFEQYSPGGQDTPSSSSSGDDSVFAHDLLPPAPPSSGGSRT
Chain of Hck (P08631 whole entry, looked up): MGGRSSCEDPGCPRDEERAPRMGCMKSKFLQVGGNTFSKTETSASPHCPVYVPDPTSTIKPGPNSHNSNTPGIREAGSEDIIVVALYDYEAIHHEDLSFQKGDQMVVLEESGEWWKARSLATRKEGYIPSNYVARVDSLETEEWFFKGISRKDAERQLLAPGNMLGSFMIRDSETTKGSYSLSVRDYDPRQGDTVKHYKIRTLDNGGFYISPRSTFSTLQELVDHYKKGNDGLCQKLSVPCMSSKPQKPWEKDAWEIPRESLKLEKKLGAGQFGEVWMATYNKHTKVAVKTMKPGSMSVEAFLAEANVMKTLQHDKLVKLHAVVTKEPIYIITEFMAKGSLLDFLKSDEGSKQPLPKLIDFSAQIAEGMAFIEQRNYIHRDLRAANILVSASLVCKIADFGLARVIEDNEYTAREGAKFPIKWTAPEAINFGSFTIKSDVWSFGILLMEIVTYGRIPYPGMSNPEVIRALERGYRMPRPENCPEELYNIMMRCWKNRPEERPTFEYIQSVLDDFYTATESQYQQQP

Sequence	SH2 binding enrichment [14]	SH2 binding enrichment [15]	SH2 binding enrichment [16]	phosphorylation enrichment [1]	phosphorylation enrichment [2]	phosphorylation enrichment [3]	phosphorylation enrichment [4]	phosphorylation enrichment [5]	phosphorylation enrichment [6]	phosphorylation enrichment [7]	phosphorylation enrichment [8]	phosphorylation enrichment [9]	phosphorylation enrichment [10]	phosphorylation enrichment [11]	phosphorylation enrichment [12]	phosphorylation enrichment [13]
GDPTEYYITAI [IGSF22_Y501_S503I]	0.647	0.374	0.478	0.611	0.598	0.594	0.562	1.1	2.91	0.647	1.38	0.809	1.95	0.399	0.703	2.6
EATKGYLDDPT [G6PD_Y322]	0.785	0.567	0.525	0.553	0.424	0.655	0.421	1.03	0.412	0.473	0.949	0.774	0.859	0.455	0.392	0.593
YKIYLYTLNDN [FN1_Y1975]	0.794	0.483	0.851	0.671	0.479	0.801	0.563	1.52	0.541	0.711	1.4	1.09	1.34	0.383	0.431	1.02
GIVEDYRPTFF [ACVRL1_Y421_P424T_YF]	0.846	0.447	0.695	0.468	0.394	0.578	0.416	1.04	0.592	0.549	0.838	0.811	0.897	0.452	0.45	0.651
MKDLTYASLCF [ALOX5_Y446]	0.912	0.411	0.737	1.71	6.75	2.65	5.35	1.33	0.901	2.07	1.01	1.78	1.09	3.15	5.59	0.946
VVKLTYNENDN [CAMKK2_Y183_A182T]	0.815	0.469	0.673	0.577	0.468	0.491	0.5	0.917	0.618	0.545	0.726	0.551	0.939	0.467	0.419	0.564
AHAGGYGAEAL [HBA1_Y25_E24G]	0.905	0.433	0.546	0.398	0.433	0.436	0.454	0.665	0.421	0.482	0.559	0.599	0.63	0.438	0.385	0.489
FDGKDYIALNE [HLA-A_Y147_YF]	0.785	0.557	0.807	0.496	0.7	0.628	0.6	1.06	0.601	0.704	0.898	0.654	1.21	0.382	0.386	0.68
EQLLDYTRTVQ [INPP5E_Y439_R435Q]	0.904	0.438	0.732	0.494	0.469	0.557	0.542	0.815	0.515	0.569	0.976	0.614	0.969	0.475	0.438	0.709
APSHAYHGGVL [ANO1_Y981]	0.881	0.629	0.501	0.502	0.382	0.371	0.5	0.494	0.626	0.336	0.496	0.505	0.52	0.381	0.475	0.427
GRRNTCYASIA [ACADM_Y352_Y352C]	0.972	3.58	7.14	0.33	0.442	0.336	0.477	0.644	0.333	0.365	0.48	0.5	0.557	0.407	0.495	0.432
PEEKVYLSRGD [CRACR2A_Y141_H136P]	0.804	0.457	0.529	0.778	0.88	1.06	1.1	1.77	0.706	0.573	1.22	1.35	1.44	0.735	1.01	1.29

The next lines start with results.

SH2 binding enrichment [14]	SH2 binding enrichment [15]	SH2 binding enrichment [16]	Sequence	phosphorylation enrichment [1]	phosphorylation enrichment [2]	phosphorylation enrichment [3]	phosphorylation enrichment [4]	phosphorylation enrichment [5]	phosphorylation enrichment [6]	phosphorylation enrichment [7]	phosphorylation enrichment [8]	phosphorylation enrichment [9]	phosphorylation enrichment [10]	phosphorylation enrichment [11]	phosphorylation enrichment [12]	phosphorylation enrichment [13]
0.873	0.749	0.633	GHEYIYVDPMQ [PDGFRA_Y574]	2.92	3.2	7.52	3.75	0.917	14.4	10.2	1.83	8.98	5.16	4.29	3.65	11.6
1.11	0.904	0.917	YKEQGYHRLPP [RIN1_Y681]	0.365	0.462	0.363	0.35	0.507	0.622	0.364	0.977	0.455	0.478	0.346	0.431	0.544
0.926	0.945	0.838	PVADRYDQSFE [MAPK14_Y323_P322R]	0.518	0.589	0.475	0.441	1.5	0.653	0.695	1.1	0.844	0.867	0.448	0.717	0.796
0.56	0.4	0.589	TSEASYFKSLN [NGEF_Y288_YF]	0.535	0.684	0.438	0.359	0.717	0.563	0.599	0.626	0.51	0.972	0.481	0.677	0.487
0.818	0.85	1.07	EQKKYYNAMKK [SCN5A_Y1495]	0.353	0.3	0.368	0.34	0.649	0.342	0.332	0.613	0.519	0.551	0.305	0.34	0.4
0.82	0.572	0.8	RNIQQCNSFVS [PRKAR1A_Y373_Y373C]	0.773	0.506	0.718	0.711	1.18	0.501	0.634	1.4	0.922	1.28	0.66	0.707	0.662
0.97	0.823	0.727	KIPGRYYETGS [PAX2_Y72_L69P]	0.588	0.496	0.445	0.388	0.713	0.503	0.424	0.637	0.689	0.56	0.573	0.476	0.539
0.878	1.09	0.947	DRLASYRDKVR [KRT12_Y139_L140R]	0.366	0.372	0.294	0.327	0.447	0.27	0.338	0.587	0.442	0.466	0.332	0.347	0.425
0.955	0.568	0.896	TFQFKYPEGSS [TGM4_Y440_E437Q_YF]	0.363	0.529	0.496	0.491	0.943	0.521	0.478	0.69	0.564	0.841	0.44	0.427	0.722
0.696	0.952	0.57	PLQSEYSSITT [ITGB4_Y1760]	1.83	1.58	3.14	1.92	2.13	1.08	2.18	0.814	1.28	1.89	1.77	1.77	1.58
0.818	1.3	1.08	ANRNVYEVEPT [MEGF10_Y1075]	0.473	6.32	0.451	0.842	0.755	0.404	0.5	0.63	0.6	0.787	0.476	4	0.47
0.978	0.778	1.47	AIMSFYAALID [RYR1_Y2426]	0.69	0.506	1.13	0.574	1.48	0.417	0.667	1.56	1.02	1.15	0.74	0.513	0.988
0.887	0.631	0.682	GGDGSYVSVPL [TNNI3K_Y425_S430L]	0.486	0.406	0.414	0.437	0.599	0.5	0.509	0.558	0.471	0.692	0.474	0.38	0.573
0.86	0.694	0.782	EFHRLYEEFTR [PIK3R1_Y467_D464H_YF]	3.87	7.21	5.22	7.49	0.941	0.573	2.58	0.714	0.709	0.97	4.42	5.59	0.579
0.801	0.383	0.465	SGKSEYLLPVA [MYLK_Y611_R607G]	0.45	0.453	0.486	0.362	0.89	0.456	0.424	0.721	1.17	1.08	0.397	0.453	0.554
0.7	0.417	0.567	EILLSDLRTGF [TGM1_Y365_Y365D_YF]	0.576	0.464	0.42	0.478	0.891	0.487	0.477	0.69	0.631	0.779	0.378	0.418	0.56
20.6	1.45	1.22	EERNTYVNTTL [TEK_Y1102_K1100N]	0.404	0.446	0.955	0.53	0.83	0.515	0.531	0.551	0.638	0.694	0.675	0.43	0.454
